Key:
[1] = target: T1, recombinant IsdB (iron-regulated surface determinant protein B), without signal peptide and sorting signal (Staphylococcus aureus, UniProt A6QG30); assay: BLI; settings: both partners purified
T1 construct: source: E. coli BL21(DE3), pET15b, purified (HiTrap Talon column)

[2] = target: T1, recombinant IsdB (iron-regulated …); assay: ELISA; settings: both partners purified

T1 sequence (A6QG30 41-613): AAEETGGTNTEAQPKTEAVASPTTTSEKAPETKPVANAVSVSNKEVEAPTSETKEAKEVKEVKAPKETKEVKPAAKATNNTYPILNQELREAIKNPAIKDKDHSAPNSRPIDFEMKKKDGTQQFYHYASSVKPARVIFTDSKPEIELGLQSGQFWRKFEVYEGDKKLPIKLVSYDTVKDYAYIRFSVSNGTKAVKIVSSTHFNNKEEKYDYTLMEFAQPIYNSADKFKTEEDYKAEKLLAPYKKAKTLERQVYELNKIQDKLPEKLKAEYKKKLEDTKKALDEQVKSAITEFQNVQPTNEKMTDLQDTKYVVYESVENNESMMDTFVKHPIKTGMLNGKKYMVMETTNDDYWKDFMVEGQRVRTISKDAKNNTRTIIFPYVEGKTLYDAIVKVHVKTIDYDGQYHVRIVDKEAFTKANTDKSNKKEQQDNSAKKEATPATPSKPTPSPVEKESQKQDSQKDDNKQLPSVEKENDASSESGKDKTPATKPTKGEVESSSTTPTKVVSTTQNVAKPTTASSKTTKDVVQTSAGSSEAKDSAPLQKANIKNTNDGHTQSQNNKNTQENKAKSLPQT

B1: STAU-281 mAb (IgG) (antibody, V domains shown)
VH: QVQLVQSGAEVKRPGSSVRVSCKDSGDSFRRYVINWVRQAPGQGLEWMGGIIPIFDKAKSVQKFQDRLTITADESTSTSYMELSSLTSEDTAVYYCARKEDGRRDDVFDIWGQGTLVTVSS
VL: EIVMTQSPATLSVSLGERATLSCRASHSVGSSLAWYQQKPGLAPRLLIYGVSTRATGIPARFSGSGSATEFTLTISSLQSEDLAAYHCQQYDNWPFTFGQGTKLEIK
B1: binds [1].

B2: STAU-399 clonal variant 6 (recombinant mAb) (antibody, V domains shown)
VH: HVQLVQSGAEVKKPGSSLKVSCKGSGGKLRGYGFSWGRQAPGQGLEWMGVIIPIFGAPTYAQKFQGRVTLAADESNNTVFMELSSLRSEDTAVYYCARDWPSITVAVDATNYGMDVWGQGTTVTVSS
VL: QSALTQPRSVSGSPGQSVTISCTGTSNDVGYYDHVSWYQQHPGKAPKFIIYDVSKRPSGVPDRFSGSKSDNTASLTISGLQAEDEADYYCCSFAGSYTYVFGTGTKVTVL
notes: source: expressed recombinantly with the original light chain and purified
In the case of B2, the “fold lower affinity than the hybridoma IgG” value [1] is reported as 27 fold and the “fold lower EC50 value than the hybridoma IgG” value [2] is reported as 18 fold.

B3: STAU-399 mAb (hybridoma IgG) (antibody, V domains shown)
VH: QVQLVQSGAEVKKPGSSLKVSCKVSGGNLRSYGISWVRQAPGQGLEWMGVIIPIFGTPTYAQKFQGRVTLAADDSNNIVFMELSSLRSEDTAVYYCARDWPSITVAVDATNYGMDVWGQGTLVTVSS
VL: QSALTQPRSVSGSPGQSVTISCTGTSNDVGYYDHVSWYQQHPGKAPKFIIYDVSKRPSGVPDRFSGSKSDNTASLTISGLQAEDEADYYCCSFAGSYTYVFGTGTKVTVL
notes: also called STAU-399 IgG
B3: binds [1].

B4: STAU-229 clonal variant 3 (recombinant mAb) (antibody, V domains shown)
VH: EVQLVQSGAEVKKPGATVKIPCQVSGYTFTDYYIHWVQQAPGKGLEWMGLVDPEDGETRYAEKFQGRVTITADTSTDTAYMEMSSLTSEDAAVYYCAKPHCTTSSCQRVSGYYFGMDVWGQGTTVTVSS
VL: QSALTQPPSASGSPGQSVTISCTGSSNDVGDYNFVSWYQQHPGKPPKLMIYEVTKRPSGVPDRFFGSKSGNTASLTVSGLQADDEADYYCSSYAGGNSVVFGGGTKLTVL
notes: as for B2
In the case of B4, the Kd [1] is reported as 1.44 nM and the “fold lower avidity than the hybridoma IgG” value [1] is reported as ~7 times.

B5: STAU-229 mAb (hybridoma cell line-expressed IgG) (antibody, V domains shown)
VH: EVQLVQSGAEVKKPGATMKISCKVSGYPFTDYYMHWVQQAPGKGLEWMGLIDPEDGETNYAEKFQGRVTITADTSTDTVYMELSSLRSEDTAVYFCAKPHCSSRTCQRVSGYYFGMDVWGQGTLVTVSS
VL: QSALTQPPSASGSPGQSVTISCTGSSNDVGDYNFVSWYQQHPGKPPKLMIYEVTKRPSGVPDRFFGSKSGNTASLTVSGLQADDEADYYCSSYAGGNSVVFGGGTKLTVL
notes: also called STAU-229 IgG; hybridoma IgG
B5: binds [1].

B6: STAU-307 clonal variant 1 (antibody, V domains shown)
VH: QAQLMQSGAEVKKTGSSVKVSCTASGGTFNTNDLMWVRQAPGQGLEWMGGIVPVFGKPKYAKKFHGRLIITADEYMTTVYMELTSLTFDDTAIYFCARSGSTESPIQDIDFWGQGTQVTVSS
VL: SYVLTQPPSVSVAPGQTATITCGGDNIATFSVHWYRQKPGQAPVLVVYDDLDRASGIPARFSGSNSGNTATLTISRVEPGDEADYFCQVWEISSDEYVFGPGTSVTVL
notes: also called Variant 1 (STAU-307)
B6: binds [1].

Reference: PMC6805997 (mBio, 2019)
